# According to US20250092106A1 (University of California, published 2025):
# Target: T1, Recombinant soluble integrin αvβ3 (UniProt P06756 31-992; P05106 27-718)
# T1 construct: Soluble heterodimer made 'as described [22]'; also called soluble αvβ3; αvβ3 protein
# Assay: SPR; soluble αvβ3 immobilized on CM5 chip, HBD as analyte, 1 mM Mn2+
# T1 sequence (P06756 31-992, chain 1 of 2): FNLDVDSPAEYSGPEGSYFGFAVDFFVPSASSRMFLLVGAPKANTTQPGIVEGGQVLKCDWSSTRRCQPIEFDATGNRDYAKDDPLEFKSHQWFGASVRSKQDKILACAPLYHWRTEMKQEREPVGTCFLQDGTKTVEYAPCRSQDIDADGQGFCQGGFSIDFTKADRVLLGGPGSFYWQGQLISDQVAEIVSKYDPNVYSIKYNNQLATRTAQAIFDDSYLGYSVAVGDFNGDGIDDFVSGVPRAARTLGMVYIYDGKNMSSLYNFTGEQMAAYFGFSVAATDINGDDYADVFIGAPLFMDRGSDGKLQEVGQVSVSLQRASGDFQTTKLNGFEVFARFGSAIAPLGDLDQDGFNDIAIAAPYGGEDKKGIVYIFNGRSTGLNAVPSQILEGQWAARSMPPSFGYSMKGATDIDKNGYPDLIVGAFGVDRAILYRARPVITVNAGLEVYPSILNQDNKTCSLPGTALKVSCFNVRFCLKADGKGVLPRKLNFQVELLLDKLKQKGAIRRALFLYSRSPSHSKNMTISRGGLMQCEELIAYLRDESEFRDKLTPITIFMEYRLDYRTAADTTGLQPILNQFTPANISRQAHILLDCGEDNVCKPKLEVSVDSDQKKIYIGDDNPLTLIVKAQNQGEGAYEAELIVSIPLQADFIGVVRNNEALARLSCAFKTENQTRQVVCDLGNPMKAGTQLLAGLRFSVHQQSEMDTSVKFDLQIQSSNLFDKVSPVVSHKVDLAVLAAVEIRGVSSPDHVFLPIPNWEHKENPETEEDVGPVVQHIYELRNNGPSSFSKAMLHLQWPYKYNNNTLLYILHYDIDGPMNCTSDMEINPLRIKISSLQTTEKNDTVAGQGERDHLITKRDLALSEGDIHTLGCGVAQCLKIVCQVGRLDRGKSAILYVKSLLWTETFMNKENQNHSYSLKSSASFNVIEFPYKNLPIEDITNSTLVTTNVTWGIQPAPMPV
# T1 sequence (P05106 27-718, chain 2 of 2): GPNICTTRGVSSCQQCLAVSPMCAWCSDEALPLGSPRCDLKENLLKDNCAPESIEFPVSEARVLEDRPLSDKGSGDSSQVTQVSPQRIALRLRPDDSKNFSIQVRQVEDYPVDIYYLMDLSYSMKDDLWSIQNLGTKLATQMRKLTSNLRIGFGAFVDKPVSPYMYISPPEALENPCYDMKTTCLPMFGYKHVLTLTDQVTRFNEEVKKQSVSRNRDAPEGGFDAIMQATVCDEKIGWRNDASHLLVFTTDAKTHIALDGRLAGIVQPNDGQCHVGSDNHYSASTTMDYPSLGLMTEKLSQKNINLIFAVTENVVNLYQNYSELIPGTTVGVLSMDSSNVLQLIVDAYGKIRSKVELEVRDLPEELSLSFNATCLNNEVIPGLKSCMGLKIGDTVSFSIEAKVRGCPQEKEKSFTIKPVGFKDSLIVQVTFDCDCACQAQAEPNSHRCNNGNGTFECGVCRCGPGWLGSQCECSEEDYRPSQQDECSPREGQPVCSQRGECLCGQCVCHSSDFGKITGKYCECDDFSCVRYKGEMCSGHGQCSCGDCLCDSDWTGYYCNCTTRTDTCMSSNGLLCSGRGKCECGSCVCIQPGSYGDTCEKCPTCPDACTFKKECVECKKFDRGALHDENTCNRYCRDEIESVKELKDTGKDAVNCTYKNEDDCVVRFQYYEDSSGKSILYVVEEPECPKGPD
binder,measurement,value
"VEGF165 heparin-binding domain (HBD, residues 111-165), wild type (ligand) QALARASGRGGRVARRGAEESGPPHSPSRRGSASRAGPGRASETMNFLLSWVHWS",Kd,470 nM
